From publication PMC3997499, “Resolving Hot Spots in the C-Terminal Dimerization Domain that Determine the Stability of the Molecular Chaperone Hsp90” (PLoS ONE, 2014)
Several values for one entry are separate records, joined by “and”; a condition that tells them apart may be missing. Equal entries are not always repeated.

How the values were obtained:
[1] = target: the molecule itself; assay: SEC-MALS; Bio SEC-5 150 Å column, HPLC buffer without glycerol (10 mM MES, 200 mM KCl, 1 mM EDTA, pH 6), samples 2.4 mg/ml; dimer to monomers
[2] = target: the molecule itself; assay: SEC; Superdex SD200 10/300, 4°C, HPLC buffer (10 mM MES/KOH, 200 mM KCl, 1 mM EDTA, 1% glycerol) pH 6, 110 µL purified CTD, triplicates; apparent stoichiometry from calibration with globular protein standards
[3] = target: the molecule itself; assay: SEC-MALS; Bio SEC-5 150 Å column, HPLC buffer without glycerol (10 mM MES, 200 mM KCl, 1 mM EDTA, pH 6), samples 2.4 mg/ml; dimer to monomers; remark: listed apart in the source

Protein | stoichiometry N [1] | stoichiometry N [2] | fraction of species 1 (monomer mass) [3] | fraction of species 2 (dimer mass) [3] | binding result [2]
C-terminal domain (CTD) of human heat shock protein of 90 kDa (hHsp90), wild type (domain or fragment, human Hsp90 alpha isoform (UniProt P07900), C-terminal domain, residues 563-732; synthetic codon-optimized DNA; Vector pTEV21-a; also called CTD wt; wt) not shown | 2 | 4 and 8 | 0 | 1 | –
hHsp90 CTD hot spot mutant II CTD^I688A/Y689A/I692A (domain or fragment, human Hsp90 alpha isoform (UniProt P07900), C-terminal domain, residues 563-732, with I688A, Y689A and I692A; Same construct as m1 (pTEV21-a), made by site-directed mutagenesis) not shown | 2 | 4 | 0.69 | 0.31 | –
hHsp90 CTD cold spot mutant CTD^S658A/Q682A (domain or fragment, human Hsp90 alpha isoform (UniProt P07900), C-terminal domain, residues 563-732, with S658A and Q682A; Same construct as m1 (pTEV21-a), made by site-directed mutagenesis; also called S658A/Q682A cold spot mutant) not shown | – | – | – | – | binds
hHsp90 CTD hot spot mutant I CTD^Y689A/I692A/L696A (domain or fragment, human Hsp90 alpha isoform (UniProt P07900), C-terminal domain, residues 563-732, with Y689A, I692A and L696A; Same construct as m1 (pTEV21-a), made by site-directed mutagenesis) not shown | 2 | 4 | 0.77 | 0.23 | –
